Test results published in patent US20200207829.

Assays:
[1] = target: T1, TMt-NLS-dCas9VP64
T1 chain: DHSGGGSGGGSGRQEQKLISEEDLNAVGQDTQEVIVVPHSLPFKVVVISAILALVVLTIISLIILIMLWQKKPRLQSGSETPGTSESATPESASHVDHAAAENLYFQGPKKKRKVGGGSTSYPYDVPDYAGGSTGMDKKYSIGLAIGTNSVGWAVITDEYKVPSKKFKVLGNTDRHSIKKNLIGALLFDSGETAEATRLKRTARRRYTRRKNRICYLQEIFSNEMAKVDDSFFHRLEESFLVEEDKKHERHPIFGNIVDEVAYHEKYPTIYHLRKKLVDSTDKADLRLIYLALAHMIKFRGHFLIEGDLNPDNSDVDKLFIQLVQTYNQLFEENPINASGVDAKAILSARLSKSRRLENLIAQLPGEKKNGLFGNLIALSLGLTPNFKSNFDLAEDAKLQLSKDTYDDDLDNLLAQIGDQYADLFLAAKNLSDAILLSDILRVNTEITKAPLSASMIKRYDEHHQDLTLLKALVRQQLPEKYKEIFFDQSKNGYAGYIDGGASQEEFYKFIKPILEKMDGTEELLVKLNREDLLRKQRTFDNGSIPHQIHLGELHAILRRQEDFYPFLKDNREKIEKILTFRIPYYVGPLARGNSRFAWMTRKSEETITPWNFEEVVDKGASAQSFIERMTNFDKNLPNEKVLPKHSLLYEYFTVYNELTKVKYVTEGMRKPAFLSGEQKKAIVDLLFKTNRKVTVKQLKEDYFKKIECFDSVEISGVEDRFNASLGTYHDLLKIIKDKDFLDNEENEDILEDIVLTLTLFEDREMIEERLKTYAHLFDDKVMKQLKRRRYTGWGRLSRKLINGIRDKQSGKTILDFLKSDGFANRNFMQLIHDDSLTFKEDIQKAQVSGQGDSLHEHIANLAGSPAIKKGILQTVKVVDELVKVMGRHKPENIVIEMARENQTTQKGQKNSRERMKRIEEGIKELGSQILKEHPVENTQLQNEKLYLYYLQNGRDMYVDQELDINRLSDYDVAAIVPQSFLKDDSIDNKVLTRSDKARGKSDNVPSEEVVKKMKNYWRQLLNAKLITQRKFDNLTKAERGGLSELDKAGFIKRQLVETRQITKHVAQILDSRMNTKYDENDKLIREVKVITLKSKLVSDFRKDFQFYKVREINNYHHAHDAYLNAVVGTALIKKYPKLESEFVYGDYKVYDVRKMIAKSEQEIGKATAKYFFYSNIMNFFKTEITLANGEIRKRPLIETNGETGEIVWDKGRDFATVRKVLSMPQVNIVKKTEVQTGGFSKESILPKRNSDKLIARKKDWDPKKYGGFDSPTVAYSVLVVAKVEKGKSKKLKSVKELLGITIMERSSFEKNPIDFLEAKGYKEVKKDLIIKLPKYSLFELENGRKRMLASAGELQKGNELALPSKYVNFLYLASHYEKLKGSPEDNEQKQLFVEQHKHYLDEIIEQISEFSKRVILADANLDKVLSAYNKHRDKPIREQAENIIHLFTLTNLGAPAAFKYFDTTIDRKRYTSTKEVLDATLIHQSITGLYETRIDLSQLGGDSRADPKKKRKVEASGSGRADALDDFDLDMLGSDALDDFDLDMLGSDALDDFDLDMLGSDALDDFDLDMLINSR

[2] = target: TMt-NESΔTCS-dCas9VP64

B1: TEV protease (protein)
chain: MHHHHHHHHHGESLFKGPRDYNPISSTICHLTNESDGHTTSLYGIGFGPFIITNKHLFRRNNGTLLVQSLHGVFKVKNTTTLQQHLIDGRDMIIIRMPKDFPPFPQKLKFREPQREERICLVTTNFQTKSMSSMVSDTSCTFPSSDGIFWKHWIQTKDGQCGSPLVSTRDGFIVGIHSASNFTNTNNYFTSVPKNFMELLTNQEAQQWVSGWRLNADSVLWGGHKVFMVKPEEPFQPVKEATQLMNRRRRP
[1]
  anti-HA immunofluorescence, localisation of dCas9-VP64: co-expression of TEV protease resulted in highly efficient release of dCas9-VP64 from the membrane tether and subsequent nuclear localization
[2]
  EYFP activation score: did not show any activity above baseline levels
